Results: the supplement of paper PMC7877785
± gives the uncertainty stated by the source.

Assay: self-splicing fitness, log relative to wild type (ln ratio); higher = more splicing; Tetrahymena group I intron in knt gene, E. coli kanamycin selection, DiMSum; sequences stand for … in CUCUCU…GGAGGGAAAAGUUAUCAGGCAUGCACCUGGUAGCUAGUCUUUAAACCAAUAGAUUGCAUCGGUUUAAAAGGCAAGACCGUCAAAUUGCGGGAAAGGGGUCAACAGCCGUUCAGUACCAAGUCUCAGGGGAAACUUUGAGAUGGCCUUGCAAAGGGUAUGGUAAUAAGCUGACGGACAUGGUCCUAACCACGCAGCCAAGUCCUAAGUCAACAGAUCUUCUGUUGAUAUGGAUGCAGUUCACAGACUAAAUGUCGGUCGGGGAAGAUGUAUUCUUCUCAUAAGAUAUAGUCGGACCUCUCCUUAAUGGGAGCUAGCGGAUGAAGUGAUGCAACACUGGAGCCGCUGGGAACUAAUUUGUAUGCGAAAGUAUAUUGAUUAGUUUUGGAGUACUCGUGGUCG
Procedure, shortened: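 A randomised library covering all eight P1ex-region intron nucleotides was built with the intron in the knt kanamycin-resistance gene on pET-22b(+) and held in E. coli BL21(DE3). Cells were grown overnight at 37°C or 30°C on LB agar, with or without 25 μg/mL kanamycin, plus 100 μg/mL carbenicillin, 50 μM IPTG and 0.2% rhamnose, and pooled colonies were amplicon-sequenced on an Illumina HiSeq 2500. DiMSum fitness is the error-weighted combination of wild-type-normalised replicate fold changes, kanamycin versus none.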

Sequence	self-splicing fitness (ln) (30 °C)	self-splicing fitness (ln) (37 °C)
CCACAGCAAUAUUACGAGAG	-2.41 ± 0.067	-1.25 ± 0.065
CCACAGCAAUAUUACGAGGG	-3.22 ± 0.12	-3.11 ± 0.22
CCACAGCAAUAUUACGAUUA	-3.92 ± 0.18	-2.11 ± 0.13
CCACAGCAAUAUUACGAUUU	-4.23 ± 0.19	-3.01 ± 0.17
CCACAGCAAUAUUACGCAGU	-3.58 ± 0.15	-2.92 ± 0.19
CCACAGCAAUAUUACGCAUU	-3.53 ± 0.17	-3.11 ± 0.16
CCACAGCAAUAUUACGCCAG	-2.56 ± 0.15	-1.07 ± 0.14
CCACAGCAAUAUUACGCCCC	-2.07 ± 0.27	-2.2 ± 0.4
CCACAGCAAUAUUACGCCGG	-3.23 ± 0.18	-2.2 ± 0.19
CCACAGCAAUAUUACGCGGA	-3.84 ± 0.21	-1.01 ± 0.11
CCACAGCAAUAUUACGCGGU	-3.46 ± 0.17	-1.94 ± 0.15
CCACAGCAAUAUUACGCGUC	-3.13 ± 0.16	-3.14 ± 0.27
CCACAGCAAUAUUACGCGUG	-3.86 ± 0.18	-2.38 ± 0.14
CCACAGCAAUAUUACGGAAA	-3.47 ± 0.23	-3.54 ± 0.29
CCACAGCAAUAUUACGGACG	-0.832 ± 0.05	-0.23 ± 0.066
CCACAGCAAUAUUACGGAGA	-3.01 ± 0.21	-1.77 ± 0.17
CCACAGCAAUAUUACGGCUC	-3.39 ± 0.18	-1.79 ± 0.16
CCACAGCAAUAUUACGGGUU	-3.68 ± 0.16	-2.58 ± 0.21
CCACAGCAAUAUUACGGUAC	-4.19 ± 0.19	-2.55 ± 0.18
CCACAGCAAUAUUACGGUUG	-1.72 ± 0.047	-0.701 ± 0.058
CCACAGCAAUAUUACGUACG	-0.647 ± 0.047	-0.02 ± 0.063
CCACAGCAAUAUUACGUCUG	-3.12 ± 0.088	-1.98 ± 0.083
CCACAGCAAUAUUACGUGAC	-3.38 ± 0.16	-2.01 ± 0.13
CCACAGCAAUAUUACGUGCC	-1.6 ± 0.15	-2.36 ± 0.21

Sequence	self-splicing fitness (ln) (30 °C)	self-splicing fitness (ln) (37 °C)
CCACAGCAAUAUUACGUUCG	-1.21 ± 0.048	-0.208 ± 0.069
CCAGAGCAAUAUUACGAACG	-0.512 ± 0.081	0.191 ± 0.1
CCAGAGCAAUAUUACGAAGU	-4.41 ± 0.46	-2.8 ± 0.34
CCAGAGCAAUAUUACGAAUU	-4 ± 0.28	-3.11 ± 0.43
CCAGAGCAAUAUUACGAGAG	-2.95 ± 0.21	-1.39 ± 0.23
CCAGAGCAAUAUUACGAGCG	-0.698 ± 0.084	-0.775 ± 0.14
CCAGAGCAAUAUUACGAUAA	-3.17 ± 0.29	-2.04 ± 0.2
CCAGAGCAAUAUUACGAUGC	-3.48 ± 0.34	-2.78 ± 0.29
CCAGAGCAAUAUUACGCAAG	-2.15 ± 0.19	-2.33 ± 0.29
CCAGAGCAAUAUUACGCAGA	-2.8 ± 0.19	-2.84 ± 0.44
CCAGAGCAAUAUUACGCCAC	-3.59 ± 0.26	-2.28 ± 0.24
CCAGAGCAAUAUUACGCCAU	-2.03 ± 0.19	-2.75 ± 0.27
CCAGAGCAAUAUUACGCGAA	-4.06 ± 0.4	-2.15 ± 0.29
CCAGAGCAAUAUUACGCGGG	-3.33 ± 0.44	
CCAGAGCAAUAUUACGCUUC	-3.48 ± 0.42	
CCAGAGCAAUAUUACGGAAC	-2.32 ± 0.2	-3.08 ± 0.36
CCAGAGCAAUAUUACGGACA	-3.25 ± 0.44	
CCAGAGCAAUAUUACGGCUU	-3.75 ± 0.28	-1.8 ± 0.2
CCAGAGCAAUAUUACGGGCA	-2.92 ± 0.28	-2.64 ± 0.38
CCAGAGCAAUAUUACGUAAC	-3.56 ± 0.37	-1.96 ± 0.32
CCAGAGCAAUAUUACGUCGA	-3.92 ± 0.18	-3.12 ± 0.17
CCAGAGCAAUAUUACGUGAA	-3.7 ± 0.16	-2.32 ± 0.18
CCAGAGCAAUAUUACGUGUA	-3.22 ± 0.21	-2.08 ± 0.23
CCAGAGCAAUAUUACGUGUU	-3.64 ± 0.16	-2.88 ± 0.17
